From patent publication US20220073643A1 (NANJING GENSCRIPT BIOTECH, published 2022)

biological target: T1, human Claudin18.2 (human); assay: cell ELISA, Claudin18.2-expressing HEK293T cells
T1 construct: also called CLDN18.2
Summary of the method: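 Claudin18.2-expressing HEK293T stable cells (1.5×10⁶ cells/ml in 5% skim milk/PBS blocking buffer) were incubated 1 h at room temperature in plates pre-blocked overnight at 4° C. EC₅₀ was derived by four-parameter curve fit.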

Binder | EC50 [nM]
271B1B6 (antibody, V domains shown, mouse hybridoma mAb) VH: QAYLQQSGAELVRSGASVKMSCKASGYTFTNYNIHWVKQTPGQGLEWIGYIYPGNGGNYYNQKFKGKATLTADTSSITAYMQISSLTSEDSAVYFCARDYYGNSFAYWGQGTLVTVSA VL: DIVMTQSPSSLTVTAGEKVTMNCKSSQSLLNSGNQKNYLTWYQQKPGQPPKLLIYWASTRESGVPDRFTGSGSGTDFTLTISSVQAEDLAIYYCQNDYYYPLTFGAGTKLELK | ~0.429
279E8B8 (antibody, V domains shown, mouse hybridoma mAb) VH: QAYLQQSGAELVRSGASVKISCKASGYTFASHNMHWVKQTPGQGLEWIGYIYPGNGGTKYNQKFTGKATLSADTSSSTAYLQISSLTSEDSAVYFCARDYFGNSFVYWGQGTLVTVSA VL: DIVMTQSPSSLTEKAGEKVSMRCKSSQSLLNSGNQKNYLTWYQQKPGQPPKLLIYWASTRESGVPDRFTGSGSGTDFTLTISSVQADDLAVYYCQNDYMYPFTFGAGTKLELK | ~9.62
392A11C8 (antibody, V domains shown, mouse hybridoma mAb) VH: DVQLVESGGGLVQPGGSRKLSCAASGFTFSGFGMHWIRQTPEKGLEWVAYISSGSRPIYYADTVKGRFTISRDNPKNTLFLQMTSLRSEDTAMYFCARFYYGNSFDHWGQGTLVTVSA VL: DIVMTQSPSFLTVTAGEKVTMSCRSSQSLLNSGNQKNYLTWYQQKPGQPPKLLIYWASTRESGVPDRFTGSGSGTDFTLTISSVQAEDLALYYCQNAYSFPLTFGAGTKLELK | 1.21
391F1G2 (antibody, V domains shown, mouse hybridoma mAb) VH: DVQLVESGGGLVQPGGSRKLSCAASGFTFSSFGMHWVRQAPEKGLEWVAYISSGSSPIYYADTVKGRFTISRDNPKNTLFLQMTSLRSEDTAMYFCARIYYGNSFAYWGQGTLVTVSA VL: DIVMTQSPSSLTVTAGEKVAMSCKSSQTLLNSGNQKNYLTWYQQKPGQPPKLLLYWASTRESGVPDRFTGSGSGTDFTLTISSVQAEDLAVYYCQNAYYYPLTFGSGTKLELK | ~2.66
286C7F11 (antibody, V domains shown, mouse hybridoma mAb) VH: QVQLKESGPGLVAPSQSLSITCTVSGFSLTDYGVSWIRQPPGKGLEWLGVIWNRGNTYYNSALKSRLSISKDNSKSQVFLRMNSLQTDDTAMYYCAKHDFLRFLDYWGQGTTLTVSS VL: DVVMTQSPSSLTVTAGEKVTMSCKSSQSLLNSGNQKNYLTWYQQKPGQPPKILIYWASTRESGVPDRFTGSGSGTDFSLTITSVQAEDLAVYYCLNDYYYPLTFGAGTKLELK | ~0.0831
265E6G2 (antibody, V domains shown, mouse hybridoma mAb) VH: QAYLQQSGAELVRSGASVKMSCKASGYTFTSYNMHWVKQTPGQGLEWIGYIYPGNGGTNYNQKFKGKATLTADTSSSTAYMQISSLTSEDSAVYFCARDYYGNSFAYWGQGTLVTVSA VL: DLVMTQSPSSLTVTAGEKVTMSCKSSQSLLNSGNQKNYLTWYQQKPGQPPKLLIYWASTRESGVPDRFTGSGSGTDFTLTISNIQAEDLAVYYCQNDYSYPLPFGAGTKLELR | ~14
406F11G8 (antibody, V domains shown, mouse hybridoma mAb) VH: DVQLVESGGGLVQPGGSRKLSCAASGFTFSSFGMHWVRQAPEKGLEWVAYISSGSSPIYYADTVKGRFTISRDNSKNTLFLQMTSLRSEDTAMYFCARIYYGNSFAYWGQGTLVTVSA VL: DIVMTQSPSSLTVTAGEKVAMSCKSSQTLLNSGNQKNYLTWYQQKPGQPPKLLIYWASTRESGVPDRFTGSGSGTDFTLTISSVQAEDLAVYYCQNAYYYPLTFGSGTKLELK | 1.83
409G10G6 (antibody, V domains shown, mouse hybridoma mAb) VH: DVQLVESGGGLVQPGGSRKLSCAASGFTFSGFGMHWIRQTPEKGLEWVAYISSDSRPIYYADTVKGRFTISRDNPKNTLFLQMTSLRSEDTAMYFCGRFYYGNSFDHWGQGTLVTVSA VL: DIVMTQSPSFLTVTAGEKVTLSCRSSQSLLNSGNQRNYLTWYQQKPGQPPKLLIYWASTRESGVPDRFTGSGSGTDFTLTISSVQAEDRALYYCQNAYSFPLTFGTGTKLELR | 2.19
395B3C11 (antibody, V domains shown, mouse hybridoma mAb) VH: DVQLVESGGGLVQPGGSRKLSCAASGFTFSGFGMHWIRQTPEKGLEWVAYISSGSRPIYYADTVQGRFTISRDNPKNTLFLQMTSLRSEDTAMYFCARFYYGNSFDHWGQGTLVTVSS VL: DIVMTQSPSFLTVTAGEKVTMSCKSSQSLLNSGNQKNYLTWYQQKPGQPPKLLIYWASTRESGVPDRFTGSGSGTDFTLTISSVQAEDLALYYCQNAYSFPLTFGAGTKLELK | 3.58
407D8G1 (antibody, V domains shown, mouse hybridoma mAb) VH: DVQLVESGGGLVQPGGSRKLSCAASGFTFSGFGMHWIRQTPEKGLEWVAYISSGSRPIYYADTVQGRFTISRDNPKNTLFLQMTSLRSEDTAMYFCARFYYGNSFDHWGQGTLVTVSS VL: DIVMTQSPSFLTVTAGEKVTMSCKSSQSLLNSGNQKNYLTWYQQKPGQPPKLLIYWASTRESGVPDRFTGSGSGTDFTLTISSVQAEDLALYYCQNAYSFPLTFGAGTKLELK | 2.38

More lines, in order of falling EC50, values ahead:

EC50 [nM] | Binder
4.33 | 406E1H7 (antibody, V domains shown, mouse hybridoma mAb) VH: DVQLVESGGGLVQPGGSRKLSCAASGFTFSGFGMHWIRQTPEKGLEWVAYISSGSRPIYYADTVQGRFTISRDNPKNTLFLQMTSLRSEDTAMYFCARFYYGNSFDHWGQGTLVTVSS VL: DIVMTQSPSFLTVTAGEKVTMSCKSSQSLLNSGNQKNYLTWYQQKPGQPPKLLIYWASTRESGVPDRFTGSGSGTDFTLTISSVQAEDLALYYCQNAYSFPLTFGAGTKLELK
2.97 | 391H11H3 (antibody, V domains shown, mouse hybridoma mAb) VH: DVQLVESGGGLVQPGGSRKLSCAASGFTFSGFGMHWIRQTPEKGLEWVAYISSGSRPIYYADTVQGRFTISRDNPKNTLFLQMTSLRSEDTAMYFCARFYYGNSFDHWGQGTLVTVSS VL: DIVMTQSPSFLTVTAGEKVTMSCKSSQSLLNSGNQKNYLTWYQQKPGQPPKLLIYWASTRESGVPDRFTGSGSGTDFTLTISSVQAEDLALYYCQNAYSFPLTFGAGTKLELK
2.81 | 394C2G5 (antibody, V domains shown, mouse hybridoma mAb) VH: DVQLVESGGGLVQPGGSRKLSCAASGFTFSGFGMHWIRQTPEKGLEWVAYVSSGSRPIYYADTVKGRFTISRDNPKNTLFLQMTSLRSEDTAMYFCARFYYGNSFDHWGQGTLVTVSA VL: DIVMTQSPSFLTVTAGEKVTMSCKSSQSLLNSGNQKNYLTWYQQKPGQPPKLLIYWASTRESGVPDRFTGSGSGTDFTLTINNVQAEDLALYYCQNAYSFPLTFGAGTKLELT
2.14 | 407A8G10 (antibody, V domains shown, mouse hybridoma mAb) VH: DVQLVESGGGLVQPGGSRKLSCAASGFTFSGFGMHWIRQTPEKGLEWVAYISSGSRPIYYADTVKGRFTISRDNPKNTLFLQMTSLRSEDTAMYFCARFYYGNSFDHWGQGTLVTVSA VL: DIVMTQSPSFLTVTAGEKVTMSCRSSQSLLNSGNQRNYLTWYQQKPGQPPKLLIYWASTRESGVPDRFTGSGSGTDFALTISSVQAEDLALYYCQNAYSFPLTFGAGTKLELK
2.05 | 409D1A7 (antibody, V domains shown, mouse hybridoma mAb) VH: DVQLVESGGGLVQPGGSRKLSCAASGFTFSGFGMHWIRQTPEKGLEWVAYISSGSRPIYYADTVKGRFTISRDNPKNTLFLHMTSLRSEDTAMYFCARFYYGNSFDHWGQGTLVTVSA VL: DIVMTQSPSFLTVTAGEKVTMNCKSSQSLLNSGNQRNYLTWYQQKPGQPPKLLIYWASTRESGVPDRFTGSGSGTDFTLTISSVQAEDLALYYCQNAYSFPLTFGAGTKLELN
1.24 | 407E11H8 (antibody, V domains shown, mouse hybridoma mAb) VH: DVQLVESGGGLVQPGGSRKLSCAASGFTFSDFGMHWIRQTPEKGLEWVAYISSGSRPIYYADTVKGRFTISRDNPKNTLFLQMTSLRSEDTAMYFCVRFYFGNSFDHWGQGTLVTVSA VL: DIVMTQSPSFLTVTAGEKVTMTCRSSQNLLNSGNLKNYLTWYQQKPGQPPKLLISWASTRESGVPDRFTGSGSGTDFTLTISSVQPEDLALYYCQNAYSFPLTFGAGTKLELK
